In patent US20180250358A1, “GHRH AGONISTS FOR THE TREATMENT OF ISCHEMIC DISORDERS” (published 2018):
Non-standard residues stand in square brackets, D forms with d. No end group written: not given here. *: point of attachment. Desaminotyrosyl = O=C(CCc1ccc(O)cc1)*; hArg = N=C(N)NCCCC[C@H](N)C(=O)O; Agmatine = N=C(N)NCCCCN*; Nle = CCCC[C@H](N)C(=O)O; Orn = NCCC[C@H](N)C(=O)O; Abu = CC[C@H](N)C(=O)O; Aoc = NCCCCCCCC(=O)O; GABA = NCCCC(=O)O

Experiments:
[1] = target: T1, GHRH receptor of human pituitary membranes (human, UniProt Q02643); assay: competition vs 125I-[His1,Nle27]hGHRH(1-32)NH2, human pituitary membranes
T1 sequence: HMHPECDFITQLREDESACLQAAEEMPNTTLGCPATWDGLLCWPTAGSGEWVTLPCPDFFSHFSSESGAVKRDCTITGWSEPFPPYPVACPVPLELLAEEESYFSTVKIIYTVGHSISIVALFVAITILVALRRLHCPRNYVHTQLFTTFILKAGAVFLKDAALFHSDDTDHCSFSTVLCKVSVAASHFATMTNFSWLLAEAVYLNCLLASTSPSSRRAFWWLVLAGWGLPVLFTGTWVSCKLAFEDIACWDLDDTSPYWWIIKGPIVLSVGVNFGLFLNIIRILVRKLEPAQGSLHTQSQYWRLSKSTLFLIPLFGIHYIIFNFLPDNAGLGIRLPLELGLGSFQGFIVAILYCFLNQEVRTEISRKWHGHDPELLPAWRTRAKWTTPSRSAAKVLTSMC
Description: (§1) Normal human pituitaries were purchased from the National Hormone and Peptide Program (A.F. Parlow, Los Angeles, County Harbor-UCLA Medical Center, Torrance, Calif.).

[2] = target: T1, GHRH receptor of human pituitary …; assay: competition vs 125I-JV-1-42, human pituitary membranes
Method: The final binding affinities were expressed as IC₅₀ values and were calculated by using the LIGAND PC computerized curve-fitting program of Munson and Rodbard as modified by McPherson.

[3] = target: T1, GHRH receptor of human pituitary …; assay: competition vs 125I-[His1,Nle27]hGHRH(1-32)NH2, human pituitary membranes; remark: listed apart in the source
Description: Normal human pituitary was purchased from the National Hormone and Peptide Program (UCLA Medical Center, Torrance, Calif.).

[4] = target: T1, GHRH receptor of human pituitary …; assay: competition vs 125I-JV-1-42, human pituitary membranes; remark: listed apart in the source
Description: as §1

Row | Binder | IC50 [1] [nM] | IC50 [2] [nM] | IC50 [3] [nM] | relative affinity (binding potency) compared to JI-38 [3] [vs JI-38=1] | relative affinity (binding potency) compared to hGHRH(1-29) [3] | IC50 [4] [nM] | relative affinity (binding potency) vs JI-38 [4] [vs JI-38=1] | relative affinity (binding potency) vs GHRH [2] | relative affinity (binding potency) vs JI-38 [2] [vs JI-38=1] | relative affinity (binding potency) vs GHRH [1] | relative affinity (binding potency) vs JI-38 [1] [vs JI-38=1]
1 | YADAIFTNSYRKVLGQLSARKLLQDIMSR-NH2 (ligand) [hGHRH(1-29)NH2] | 5.92 | 4.06 |  |  |  |  |  |  |  |  | 
2 | [Desaminotyrosyl][dA]DAIFTNSYR[Orn]VL[Abu]QLSAR[Orn]LLQDI[Nle]SRQ-{GABA-NH2} (SMILES CCCC[C@H](NC(=O)[C@@H](NC(=O)[C@H](CC(=O)O)NC(=O)[C@H](CCC(N)=O)NC(=O)[C@H](CC(C)C)NC(=O)[C@H](CC(C)C)NC(=O)[C@H](CCCN)NC(=O)[C@H](CCCNC(=N)N)NC(=O)[C@H](C)NC(=O)[C@H](CO)NC(=O)[C@H](CC(C)C)NC(=O)[C@H](CCC(N)=O)NC(=O)[C@H](CC)NC(=O)[C@H](CC(C)C)NC(=O)[C@@H](NC(=O)[C@H](CCCN)NC(=O)[C@H](CCCNC(=N)N)NC(=O)[C@H](Cc1ccc(O)cc1)NC(=O)[C@H](CO)NC(=O)[C@H](CC(N)=O)NC(=O)[C@@H](NC(=O)[C@H](Cc1ccccc1)NC(=O)[C@@H](NC(=O)[C@H](C)NC(=O)[C@H](CC(=O)O)NC(=O)[C@@H](C)NC(=O)CCc1ccc(O)cc1)[C@@H](C)CC)[C@@H](C)O)C(C)C)[C@@H](C)CC)C(=O)N[C@@H](CO)C(=O)N[C@@H](CCCNC(=N)N)C(=O)N[C@@H](CCC(N)=O)C(=O)NCCCC(N)=O) [P-29702 [Dat^1, D-Ala^2, Orn^12, Abu^15, Orn^21, Nle^27, Gln-Gab^30]hGHRH(1-30)NH2] |  | 0.05 | 3.3 | 0.83 | 2.31 vs hGHRH(1-29)NH2=1 | 0.86 | 5.06 | 81.2 vs GHRH(1-29)=1 | 34.2 |  | 
3 | [Desaminotyrosyl][dA]DAIFTASYR[Orn]VL[Abu]QLSAR[Orn]LLQDI[Nle]DR[hArg]-NH2 (SMILES CCCC[C@H](NC(=O)[C@@H](NC(=O)[C@H](CC(=O)O)NC(=O)[C@H](CCC(N)=O)NC(=O)[C@H](CC(C)C)NC(=O)[C@H](CC(C)C)NC(=O)[C@H](CCCN)NC(=O)[C@H](CCCNC(=N)N)NC(=O)[C@H](C)NC(=O)[C@H](CO)NC(=O)[C@H](CC(C)C)NC(=O)[C@H](CCC(N)=O)NC(=O)[C@H](CC)NC(=O)[C@H](CC(C)C)NC(=O)[C@@H](NC(=O)[C@H](CCCN)NC(=O)[C@H](CCCNC(=N)N)NC(=O)[C@H](Cc1ccc(O)cc1)NC(=O)[C@H](CO)NC(=O)[C@H](C)NC(=O)[C@@H](NC(=O)[C@H](Cc1ccccc1)NC(=O)[C@@H](NC(=O)[C@H](C)NC(=O)[C@H](CC(=O)O)NC(=O)[C@@H](C)NC(=O)CCc1ccc(O)cc1)[C@@H](C)CC)[C@@H](C)O)C(C)C)[C@@H](C)CC)C(=O)N[C@@H](CC(=O)O)C(=O)N[C@@H](CCCNC(=N)N)C(=O)N[C@@H](CCCCNC(=N)N)C(N)=O) [P-23256 [Dat^1, D-Ala^2, Ala^8, Orn^12, Abu^15, Orn^21, Nle^27, Asp^28, Har^30]hGHRH(1-30)NH2] | 0.04 |  |  |  |  |  |  |  |  | 148 vs GHRH(1-29)=1 | 48.7
4 | [Desaminotyrosyl][dA]DAIFTQSYR[Orn]VL[Abu]QLSAR[Orn]LLQDI[Nle]D[Agmatine] (SMILES CCCC[C@H](NC(=O)[C@@H](NC(=O)[C@H](CC(=O)O)NC(=O)[C@H](CCC(N)=O)NC(=O)[C@H](CC(C)C)NC(=O)[C@H](CC(C)C)NC(=O)[C@H](CCCN)NC(=O)[C@H](CCCNC(=N)N)NC(=O)[C@H](C)NC(=O)[C@H](CO)NC(=O)[C@H](CC(C)C)NC(=O)[C@H](CCC(N)=O)NC(=O)[C@H](CC)NC(=O)[C@H](CC(C)C)NC(=O)[C@@H](NC(=O)[C@H](CCCN)NC(=O)[C@H](CCCNC(=N)N)NC(=O)[C@H](Cc1ccc(O)cc1)NC(=O)[C@H](CO)NC(=O)[C@H](CCC(N)=O)NC(=O)[C@@H](NC(=O)[C@H](Cc1ccccc1)NC(=O)[C@@H](NC(=O)[C@H](C)NC(=O)[C@H](CC(=O)O)NC(=O)[C@@H](C)NC(=O)CCc1ccc(O)cc1)[C@@H](C)CC)[C@@H](C)O)C(C)C)[C@@H](C)CC)C(=O)N[C@@H](CC(=O)O)C(=O)NCCCCNC(=N)N) [P-20350 [Dat^1, D-Ala^2, Gln^8, Orn^12, Abu^15, Orn^21, Nle^27, Asp^28, Agm^29]hGHRH(1-29)NH2] |  | 0.04 |  |  |  | 0.52 | 8.37 | 102 vs GHRH(1-29)=1 | 42.7 |  | 
5 | YADAIFTNSYRKVLGQLSARKLLQDIMSRQ (Dat^1; D-Ala^2; Fpa5^6; Orn^12; Abu^15; Orn^21; Nle^27; Gab^30 (in place of Gln^30); C-terminal -NH2) [P-25502 [Dat^1, D-Ala^2, Fpa5^6, Orn^12, Abu^15, Orn^21, Nle^27, Gab^30]hGHRH(1-30)NH2] |  | 0.07 | 2.16 | 1.27 | 3.54 vs hGHRH(1-29)NH2=1 | 0.33 | 13.2 | 58 vs GHRH(1-29)=1 | 24.4 |  | 

Next, values leading:

Row | IC50 [1] [nM] | IC50 [2] [nM] | IC50 [3] [nM] | relative affinity (binding potency) compared to JI-38 [3] [vs JI-38=1] | relative affinity (binding potency) compared to hGHRH(1-29) [3] | IC50 [4] [nM] | relative affinity (binding potency) vs JI-38 [4] [vs JI-38=1] | relative affinity (binding potency) vs GHRH [2] | relative affinity (binding potency) vs JI-38 [2] [vs JI-38=1] | relative affinity (binding potency) vs GHRH [1] | relative affinity (binding potency) vs JI-38 [1] [vs JI-38=1] | Binder
6 | 0.07 |  |  |  |  |  |  |  |  | 84.5 vs GHRH(1-29)=1 | 27.8 | [Desaminotyrosyl][dA]DAIFTTSYR[Orn]VL[Abu]QLSAR[Orn]LLQDI[Nle]DR[hArg]-NH2 (SMILES CCCC[C@H](NC(=O)[C@@H](NC(=O)[C@H](CC(=O)O)NC(=O)[C@H](CCC(N)=O)NC(=O)[C@H](CC(C)C)NC(=O)[C@H](CC(C)C)NC(=O)[C@H](CCCN)NC(=O)[C@H](CCCNC(=N)N)NC(=O)[C@H](C)NC(=O)[C@H](CO)NC(=O)[C@H](CC(C)C)NC(=O)[C@H](CCC(N)=O)NC(=O)[C@H](CC)NC(=O)[C@H](CC(C)C)NC(=O)[C@@H](NC(=O)[C@H](CCCN)NC(=O)[C@H](CCCNC(=N)N)NC(=O)[C@H](Cc1ccc(O)cc1)NC(=O)[C@H](CO)NC(=O)[C@@H](NC(=O)[C@@H](NC(=O)[C@H](Cc1ccccc1)NC(=O)[C@@H](NC(=O)[C@H](C)NC(=O)[C@H](CC(=O)O)NC(=O)[C@@H](C)NC(=O)CCc1ccc(O)cc1)[C@@H](C)CC)[C@@H](C)O)[C@@H](C)O)C(C)C)[C@@H](C)CC)C(=O)N[C@@H](CC(=O)O)C(=O)N[C@@H](CCCNC(=N)N)C(=O)N[C@@H](CCCCNC(=N)N)C(N)=O) [P-23254 [Dat^1, D-Ala^2, Thr^8, Orn^12, Abu^15, Orn^21, Nle^27, Asp^28, Har^30]hGHRH(1-30)NH2]
7 |  |  | 2.85 | 0.96 | 2.68 vs hGHRH(1-29)NH2=1 | 1.44 | 3.02 |  |  |  |  | YADAIFTNSYRKVLGQLSARKLLQDIMSRQ (Dat^1; D-Abu^2; Orn^12; Abu^15; Orn^21; Nle^27; Gab^30 (in place of Gln^30); C-terminal -NH2) [P-25504 [Dat^1, D-Abu^2, Orn^12, Abu^15, Orn^21, Nle^27, Gab^30]hGHRH(1-30)NH2]
8 | 0.14 |  |  |  |  |  |  |  |  | 42.3 vs GHRH(1-29)=1 | 13.9 | [Desaminotyrosyl][dA]DAIFTNSYR[Orn]VL[Abu]QLSAR[Orn]LLQDI[Nle]DR[hArg]-NH2 (SMILES CCCC[C@H](NC(=O)[C@@H](NC(=O)[C@H](CC(=O)O)NC(=O)[C@H](CCC(N)=O)NC(=O)[C@H](CC(C)C)NC(=O)[C@H](CC(C)C)NC(=O)[C@H](CCCN)NC(=O)[C@H](CCCNC(=N)N)NC(=O)[C@H](C)NC(=O)[C@H](CO)NC(=O)[C@H](CC(C)C)NC(=O)[C@H](CCC(N)=O)NC(=O)[C@H](CC)NC(=O)[C@H](CC(C)C)NC(=O)[C@@H](NC(=O)[C@H](CCCN)NC(=O)[C@H](CCCNC(=N)N)NC(=O)[C@H](Cc1ccc(O)cc1)NC(=O)[C@H](CO)NC(=O)[C@H](CC(N)=O)NC(=O)[C@@H](NC(=O)[C@H](Cc1ccccc1)NC(=O)[C@@H](NC(=O)[C@H](C)NC(=O)[C@H](CC(=O)O)NC(=O)[C@@H](C)NC(=O)CCc1ccc(O)cc1)[C@@H](C)CC)[C@@H](C)O)C(C)C)[C@@H](C)CC)C(=O)N[C@@H](CC(=O)O)C(=O)N[C@@H](CCCNC(=N)N)C(=O)N[C@@H](CCCCNC(=N)N)C(N)=O) [P-23252 [Dat^1-D-Ala^2, Orn^12, Abu^15, Orn^21, Nle^27, Asp^28, Har^30]hGHRH(1-30)NH2]
9 | 0.08 |  |  |  |  |  |  |  |  | 74 vs GHRH(1-29)=1 | 24.4 | [Desaminotyrosyl][dA]DAIFTQSYR[Orn]VL[Abu]QLSAR[Orn]LLQDI[Nle]DR[Aoc]-NH2 (SMILES CCCC[C@H](NC(=O)[C@@H](NC(=O)[C@H](CC(=O)O)NC(=O)[C@H](CCC(N)=O)NC(=O)[C@H](CC(C)C)NC(=O)[C@H](CC(C)C)NC(=O)[C@H](CCCN)NC(=O)[C@H](CCCNC(=N)N)NC(=O)[C@H](C)NC(=O)[C@H](CO)NC(=O)[C@H](CC(C)C)NC(=O)[C@H](CCC(N)=O)NC(=O)[C@H](CC)NC(=O)[C@H](CC(C)C)NC(=O)[C@@H](NC(=O)[C@H](CCCN)NC(=O)[C@H](CCCNC(=N)N)NC(=O)[C@H](Cc1ccc(O)cc1)NC(=O)[C@H](CO)NC(=O)[C@H](CCC(N)=O)NC(=O)[C@@H](NC(=O)[C@H](Cc1ccccc1)NC(=O)[C@@H](NC(=O)[C@H](C)NC(=O)[C@H](CC(=O)O)NC(=O)[C@@H](C)NC(=O)CCc1ccc(O)cc1)[C@@H](C)CC)[C@@H](C)O)C(C)C)[C@@H](C)CC)C(=O)N[C@@H](CC(=O)O)C(=O)N[C@@H](CCCNC(=N)N)C(=O)NCCCCCCCC(N)=O) [P-21304 [Dat^1, D-Ala^2, Gln^8, Orn^12, Abu^15, Orn^21, Nle^27, Asp^28, Amc^30]hGHRH(1-30)NH2]
